Data from patent US5591825A, “Interleukin 4 signal transducers” (Tularik, Inc., priority 1994, dated 1997).
Non-standard residues stand in square brackets, D forms with d. pY = N[C@@H](Cc1ccc(OP(=O)(O)O)cc1)C(=O)O

Target: T1, IL-4 Stat (Homo sapiens, UniProt P42226)
T1 construct: Samples of nuclear extract prepared from IL-4 induced Thp-1 cells were incubated with individual phosphopeptides; endogenous in cells; host or cells: Thp-1 cells, IL-4 induced, nuclear extract
T1 sequence (P42226 1-847): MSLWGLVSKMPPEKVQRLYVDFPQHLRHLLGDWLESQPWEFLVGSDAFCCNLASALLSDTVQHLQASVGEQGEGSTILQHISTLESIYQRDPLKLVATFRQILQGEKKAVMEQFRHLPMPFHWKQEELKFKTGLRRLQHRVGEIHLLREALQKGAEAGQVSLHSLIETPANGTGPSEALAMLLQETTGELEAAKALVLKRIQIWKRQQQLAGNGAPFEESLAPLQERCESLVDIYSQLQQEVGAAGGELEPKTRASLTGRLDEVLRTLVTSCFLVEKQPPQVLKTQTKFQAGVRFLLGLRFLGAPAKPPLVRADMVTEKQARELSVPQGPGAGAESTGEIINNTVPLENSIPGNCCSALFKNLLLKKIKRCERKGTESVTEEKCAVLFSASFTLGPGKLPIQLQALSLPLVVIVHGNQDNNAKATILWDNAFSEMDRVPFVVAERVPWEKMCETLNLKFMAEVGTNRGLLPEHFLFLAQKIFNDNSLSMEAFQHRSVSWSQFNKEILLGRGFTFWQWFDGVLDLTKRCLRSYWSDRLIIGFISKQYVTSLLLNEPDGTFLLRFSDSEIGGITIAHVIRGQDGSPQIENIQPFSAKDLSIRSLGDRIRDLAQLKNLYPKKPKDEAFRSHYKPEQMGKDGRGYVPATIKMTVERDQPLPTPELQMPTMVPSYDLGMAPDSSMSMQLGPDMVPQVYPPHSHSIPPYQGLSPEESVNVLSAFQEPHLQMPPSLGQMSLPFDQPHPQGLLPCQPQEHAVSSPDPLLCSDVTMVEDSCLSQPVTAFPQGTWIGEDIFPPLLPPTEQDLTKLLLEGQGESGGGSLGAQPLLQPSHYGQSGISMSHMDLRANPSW
Assay: Gel mobility shift assay of IL-4 Stat DNA binding in nuclear extract of IL-4 induced Thp-1 cells
Assay type: biochemical
Details: nuclear extract from IL-4 induced Thp-1 cells

Substance	inhibitory effect on DNA binding by activated IL-4 Stat
NH2-ASS GEE GYKP FQD LI(SEQ ID NO:11)-COOH (H-ASSGEEG[pY]KPFQDLI-OH; SMILES CC[C@H](C)[C@H](NC(=O)[C@H](CC(C)C)NC(=O)[C@H](CC(=O)O)NC(=O)[C@H](CCC(N)=O)NC(=O)[C@H](Cc1ccccc1)NC(=O)[C@@H]1CCCN1C(=O)[C@H](CCCCN)NC(=O)[C@H](Cc1ccc(OP(=O)(O)O)cc1)NC(=O)CNC(=O)[C@H](CCC(=O)O)NC(=O)[C@H](CCC(=O)O)NC(=O)CNC(=O)[C@H](CO)NC(=O)[C@H](CO)NC(=O)[C@H](C)N)C(=O)O)	inhibitory
NH2-GPP GEA GYKA FSS LL(SEQ ID NO:10)-COOH (H-GPPGEAG[pY]KAFSSLL-OH; SMILES CC(C)C[C@H](NC(=O)[C@H](CC(C)C)NC(=O)[C@H](CO)NC(=O)[C@H](CO)NC(=O)[C@H](Cc1ccccc1)NC(=O)[C@H](C)NC(=O)[C@H](CCCCN)NC(=O)[C@H](Cc1ccc(OP(=O)(O)O)cc1)NC(=O)CNC(=O)[C@H](C)NC(=O)[C@H](CCC(=O)O)NC(=O)CNC(=O)[C@@H]1CCCN1C(=O)[C@@H]1CCCN1C(=O)CN)C(=O)O)	inhibitory
